Four substances from paper PMC6697693 can be followed below.

For the assay, the target named is Δ258-UNC-23, stable fragment of UNC-23, fluorescently labelled (C. elegans).
Chain of Δ258-UNC-23, stable fragment of UNC-23, fluorescently labelled (C. elegans) (main, as listed by the source mutant): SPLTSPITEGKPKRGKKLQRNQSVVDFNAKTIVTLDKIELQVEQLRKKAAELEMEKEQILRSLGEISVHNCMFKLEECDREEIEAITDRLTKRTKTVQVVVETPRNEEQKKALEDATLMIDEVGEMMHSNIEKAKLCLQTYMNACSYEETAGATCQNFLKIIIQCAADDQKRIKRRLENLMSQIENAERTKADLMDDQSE

Chain of wild type Hsc70 (nematode Hsc70, HSP-1) (P09446 whole entry): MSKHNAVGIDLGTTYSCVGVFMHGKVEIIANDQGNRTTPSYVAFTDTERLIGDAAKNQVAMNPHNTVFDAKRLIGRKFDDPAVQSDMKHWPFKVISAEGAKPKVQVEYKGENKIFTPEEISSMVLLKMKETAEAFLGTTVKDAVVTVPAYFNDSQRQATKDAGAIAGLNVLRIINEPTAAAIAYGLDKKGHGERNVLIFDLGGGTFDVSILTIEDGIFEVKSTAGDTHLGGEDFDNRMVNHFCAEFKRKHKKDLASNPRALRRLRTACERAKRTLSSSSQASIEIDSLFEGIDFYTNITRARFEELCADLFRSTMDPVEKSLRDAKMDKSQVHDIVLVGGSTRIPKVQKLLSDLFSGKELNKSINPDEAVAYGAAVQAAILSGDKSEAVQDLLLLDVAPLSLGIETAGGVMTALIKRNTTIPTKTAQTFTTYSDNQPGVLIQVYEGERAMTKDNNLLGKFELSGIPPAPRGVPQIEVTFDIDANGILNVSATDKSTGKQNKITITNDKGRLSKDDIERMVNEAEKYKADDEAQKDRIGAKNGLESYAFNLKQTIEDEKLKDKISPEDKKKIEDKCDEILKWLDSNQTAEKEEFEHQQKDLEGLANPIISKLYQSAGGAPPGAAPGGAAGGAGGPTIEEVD

The substance “Hsc70 D233N (from UniProt P09446 1-640) (natural protein)” came in with an ATPase stimulation (stimulated minus unstimulated turnover), 3 µM Hsc70 D233N with 3 µM UNC-23 of 0.12 min⁻¹.

Regarding “Hsc70 D384N (from UniProt P09446 1-640) (natural protein)”, the ATPase stimulation (stimulated minus unstimulated turnover), 3 µM Hsc70 D384N with 3 µM UNC-23 is 0.24 min⁻¹.

Consider “Hsc70 A379V (from UniProt P09446 1-640) (natural protein)”, for which the ATPase stimulation (stimulated minus unstimulated turnover), 3 µM Hsc70 A379V with 3 µM UNC-23 was 0.02 min⁻¹.

The substance “wild type Hsc70 (nematode Hsc70, HSP-1) (from UniProt P09446 1-640) (natural protein)” returned an ATPase stimulation (stimulated minus unstimulated turnover), 3 µM Hsc70 with 3 µM UNC-23 of 0.18 min⁻¹.
